Reference: doi:10.1101/2020.01.16.909523 (bioRxiv, 2020)

Biological target: PE5mt-PPE4mt heterodimer (His6 tag cleaved) (Mycobacterium tuberculosis, UniProt L7N695 1-102; P9WI43 1-180)
Assay: SEC-MALS

Chain of PE5mt-PPE4mt heterodimer (His6 tag cleaved) (L7N695 whole entry, chain 1 of 2): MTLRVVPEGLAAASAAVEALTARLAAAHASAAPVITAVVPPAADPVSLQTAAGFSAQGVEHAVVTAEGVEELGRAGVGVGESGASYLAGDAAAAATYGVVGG
Chain of PE5mt-PPE4mt heterodimer (His6 tag cleaved) (P9WI43 1-180, chain 2 of 2): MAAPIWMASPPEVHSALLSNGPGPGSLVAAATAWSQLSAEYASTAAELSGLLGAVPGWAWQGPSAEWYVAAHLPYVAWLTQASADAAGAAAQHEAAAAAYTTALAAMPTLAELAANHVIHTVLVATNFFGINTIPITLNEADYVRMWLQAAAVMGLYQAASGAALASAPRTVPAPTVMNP

B1: EspG3mm (natural protein)
chain: MESMPNAVELTVENAWFIAEMVGAGTFPWVLAITTPYSDEAQRSAFFARQRDELTQLGLLSSDGVVNPAVAEWIKVVCFPERWLDLRYVGPGTGNGGEDLLRGIVAQSAGIMGKAGKAHPSFNTVVALRNAQLVTFTAMDIDDPRALVPVLGVGLSARPPARFEEFSMPMRVGARADERLRSGESLDEVLDYLGIPVSARPVVQAVFSGPRSYVEIVAGCNRDGEHTTTDVGLSIVDTTAGRVLVSPSRAFDGEWVSTFSAGTPFATAVAIDQLIANLPDGQWFPGQRLSRDFSSQPS
**Q.** How did the “stoichiometry N” value turn out when B1 was run?
**A.** 1
